This note sets out measurements from patent publication US20240010747A1, “ANTI-MRP4 (ENCODED BY ABCC4 GENE) ANTIBODIES AND USES THEREOF” (Kenjockety Biotechnology, Inc., priority 2020, published 2024).

T1: cynomolgus ABCC4 (cynomolgus, UniProt A0A2K5W0Z4 1-1325)
T1 construct: whole, on cells; Expressed on murine C6 cells stably transfected with cynomolgus ABCC4 cDNA with C-terminal FLAG tag; not shown: C-terminal fused FLAG tag
T1 sequence: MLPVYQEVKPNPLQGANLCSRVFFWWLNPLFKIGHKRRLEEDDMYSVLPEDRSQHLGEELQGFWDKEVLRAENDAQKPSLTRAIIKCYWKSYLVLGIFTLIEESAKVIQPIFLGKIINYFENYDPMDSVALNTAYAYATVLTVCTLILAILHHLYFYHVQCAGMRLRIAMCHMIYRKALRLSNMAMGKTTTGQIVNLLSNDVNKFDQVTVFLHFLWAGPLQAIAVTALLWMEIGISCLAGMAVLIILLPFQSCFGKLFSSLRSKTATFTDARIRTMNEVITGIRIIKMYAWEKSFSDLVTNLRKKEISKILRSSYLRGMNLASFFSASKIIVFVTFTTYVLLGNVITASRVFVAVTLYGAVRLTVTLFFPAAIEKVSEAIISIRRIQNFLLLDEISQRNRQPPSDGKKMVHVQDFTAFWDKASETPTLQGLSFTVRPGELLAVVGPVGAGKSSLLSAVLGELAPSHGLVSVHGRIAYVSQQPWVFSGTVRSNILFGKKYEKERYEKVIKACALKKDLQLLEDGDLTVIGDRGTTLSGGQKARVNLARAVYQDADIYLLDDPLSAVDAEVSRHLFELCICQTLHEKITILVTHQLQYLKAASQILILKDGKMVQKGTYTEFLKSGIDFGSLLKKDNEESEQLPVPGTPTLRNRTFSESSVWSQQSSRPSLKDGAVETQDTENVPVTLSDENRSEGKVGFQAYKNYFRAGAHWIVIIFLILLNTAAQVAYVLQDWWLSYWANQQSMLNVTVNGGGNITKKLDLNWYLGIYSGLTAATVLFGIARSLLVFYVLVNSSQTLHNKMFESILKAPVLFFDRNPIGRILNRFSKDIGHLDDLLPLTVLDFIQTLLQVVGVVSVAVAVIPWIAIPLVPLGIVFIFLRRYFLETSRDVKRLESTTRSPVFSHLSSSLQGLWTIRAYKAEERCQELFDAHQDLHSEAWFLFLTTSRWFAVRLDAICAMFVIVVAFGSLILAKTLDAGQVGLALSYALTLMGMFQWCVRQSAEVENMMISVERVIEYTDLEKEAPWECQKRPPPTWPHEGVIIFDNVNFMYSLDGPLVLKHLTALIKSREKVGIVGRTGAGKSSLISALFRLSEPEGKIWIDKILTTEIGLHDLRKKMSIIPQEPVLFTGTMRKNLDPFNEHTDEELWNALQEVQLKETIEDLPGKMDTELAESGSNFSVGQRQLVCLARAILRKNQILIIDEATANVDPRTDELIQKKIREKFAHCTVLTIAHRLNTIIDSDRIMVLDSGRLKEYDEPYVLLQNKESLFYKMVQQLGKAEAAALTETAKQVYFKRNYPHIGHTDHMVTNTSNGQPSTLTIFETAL

B1: C4.1148 (antibody, V domains shown)
VH: EVQLVESDGGLVQPGRSLKLSCAASGFTFSDYYMAWVRQAPPKGLEWVATISYDAFTTYYRDSVKGRFTISRDNAKTILFLQMDSLRSEDTATYYCIRLSTRYKGVMDAWGHGASVTVSS
VL: DIQMTQSPSNLAASPGESVSINCKASETIYKYLAWYQQKPGRTNKLLIYSGSTLQSGTPSRFSGSGSGTDFTLTIRNLEPEDFGRYYCQHHVEYPPTFGAGTKLELK
B2: C4.1059 (antibody, V domains shown)
VH: QVQLLQSGAALVKPGASVKMSCKPSGYTFTDYWVSWVKQSHGKSLEWIGEIYPNNGATNFNEKFKGKATLTVDKSTSTAYMELSRLTSEDSAIYYCPSRKYGYNWNFDYWGQGTMVTVSS
VL: DIVLTQSPALAVSLGQRATISCWASQSVSISRYNLMHWYQQKPGQQPKLLIYRASNLASGIPARFSGSGSGTDFTLTINPVQADDIATYYCQQSGESPWTFGGGTKLELK
B3: C4.1139 (antibody, V domains shown)
VH: EVQLVESDGGLVQPGRSLKLSCAASGFTFSDYYMAWVRQAPTKGLYWVASISYDGSTTYYRDSVKGRFTISRDNAKSTLYLQMGSLRSEDTATYYCARLSIRYKGVMDAWGRGASVTVSS
VL: DVVMTQSPSNLAASPGESVSINCKASKSIGKFLAWYQQKPGRPNKLLIYSGSTLQSGTPSRFSGSGSGTDFTLTIRNLEPGDFGLYYCQHHIEYPPTFGPGTKLELK

The target of this assay is T1, cynomolgus ABCC4. Put plainly: FACS, different C6.cC4 cell line stably expressing cynomolgus ABCC4. The protocol: Antibody binding to cells was evaluated by flow cytometry. Murine C6 cells stably transfected to express human or cynomolgus ABCC4 were washed once in flow cytometry buffer (PBS+2% FBS+0.02% sodium azide), resuspended at 2×10\hat{ }6 cells/mL in flow cytometry buffer, and dispensed into 96-well microtiter plates at 0.1 mL/well. Recombinant antibodies were added to cells at 5 ug/mL for initial binding confirmation, or serially diluted from 100 ug/mL in flow cytometry buffer. After incubating cells on ice for 30 min, cells were washed twice with flow cytometry buffer. Bound antibody was detected with PE-labeled F(ab′)₂ fragment goat anti-human IgG (Jackson ImmunoResearch) and evaluated on an Attune N×T flow cytometer. EC50 is calculated to be the concentration of antibody that gives half maximal response.
A general note: In flow cytometry, cells or beads pass a laser one at a time.
Regarding B1, the binding result was “no binding (tested: Rmax (MFI) below background level)”. As to B2, the binding result is “no binding (tested: Rmax (MFI) below background level)”. Under B3 stands “no binding (tested: Rmax (MFI) below background level)”.
